Results on two molecules are retold here after PMC9177957 (Nucleic Acids Research, 2022).

The experiment has as its target T1, wildtype NP of influenza A/NT/60/1968 (H3N2) virus (influenza A/NT/60/1968 (H3N2) virus, UniProt P03467 1-498).
T1 construct: not shown: GST, N-terminal, cleaved
Kind of experiment: pull-down. The conditions noted are these: both partners purified.

B1: GST-tagged full-length human ANP32A (natural protein)
chain: MEMGRRIHLELRNRTPSDVKELVLDNSRSNEGKLEGLTDEFEELEFLSTINVGLTSIANLPKLNKLKKLELSDNRVSGGLEVLAEKCPNLTHLNLSGNKIKDLSTIEPLKKLENLKSLDLFNCEVTNLNDYRENVFKLLPQLTYLDGYDRDDKEAPDSDAEGYVEGLDDEEEDEDEEEYDEDAQVVEDEEDEDEEEEGEEEDVSGEEEEDEEGYNDGEVDDEEDEEELGEEERGQKRKREPEDEGEDDD
notes: also called GST-huANP32A; huANP32A WT; source: E. coli, purified (Glutathione Sepharose, eluted with reduced glutathione); not shown: GST, N-terminal, kept
Take B1: the binding result is reported as “binds”.

B2: GST-tagged full-length human ANP32B (natural protein)
chain: MDMKRRIHLELRNRTPAAVRELVLDNCKSNDGKIEGLTAEFVNLEFLSLINVGLISVSNLPKLPKLKKLELSENRIFGGLDMLAEKLPNLTHLNLSGNKLKDISTLEPLKKLECLKSLDLFNCEVTNLNDYRESVFKLLPQLTYLDGYDREDQEAPDSDAEVDGVDEEEEDEEGEDEEDEDDEDGEEEEFDEEDDEDEDVEGDEDDDEVSEEEEEFGLDEEDEDEDEDEEEEEGGKGEKRKRETDDEGEDD
notes: also called GST-huANP32B; huANP32B WT; source: E. coli, purified (Glutathione Sepharose, eluted with reduced glutathione); not shown: GST, N-terminal, kept
As for B2, the binding result is “binds”.
